From US20230102344A1 (published 2023)

Columns and labels:
[1] = molecular target: T1, TCRvβ 6-5 expressed on cells (TCRvβ 6-5+ Jurkat cells; human T cells) (human); assay: cell binding
T1 chain: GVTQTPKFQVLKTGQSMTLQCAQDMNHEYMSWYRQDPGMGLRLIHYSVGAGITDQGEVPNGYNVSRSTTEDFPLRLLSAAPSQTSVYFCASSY

[2] = molecular target: CD33 expressed on cells (MOLM-13, MV411, HL60) (human, UniProt P20138 18-364); assay: cell binding
[3] = molecular target: T1, TCRvβ 6-5 expressed on cells (TCRvβ …); assay: FACS cell binding

Sequence of CD33 expressed on cells (MOLM-13, MV411, HL60) (P20138 18-364): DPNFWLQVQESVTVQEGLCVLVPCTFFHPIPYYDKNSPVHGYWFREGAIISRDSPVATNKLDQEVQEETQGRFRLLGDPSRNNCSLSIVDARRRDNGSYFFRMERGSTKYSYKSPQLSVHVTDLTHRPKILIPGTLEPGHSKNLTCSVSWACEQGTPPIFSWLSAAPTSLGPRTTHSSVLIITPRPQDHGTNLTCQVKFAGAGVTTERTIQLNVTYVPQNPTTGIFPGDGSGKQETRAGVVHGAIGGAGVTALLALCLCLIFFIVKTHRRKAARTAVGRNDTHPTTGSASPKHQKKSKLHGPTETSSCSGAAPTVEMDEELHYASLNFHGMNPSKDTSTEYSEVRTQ

B1: BJM0387 (bispecific antibody)
heavy: QVQLVQSGAEVKKPGSSVKVSCKASGYSFTTYYIHWVRQAPGQGLEWMGWFFPGSGNIKYNEKFKGRVTITADTSTSTAYMELSSLRSEDTAVYYCAGSYYSYDVLDYWGQGTTVTVSSGGGGSGGGGSGGGGSGGGGSDIQMTQSPSFLSASVGDRVTITCKASQNVGINVVWHQQKPGKAPKALIYSSSHRYSGVPSRFSGSGSGTEFTLTISSLQPEDFATYFCQQFKSYPLTFGQGTKLEIKGGGGSQVQLVQSGAEVKKPGSSVKVSCKASGYTFTDYNMHWVRQAPGQGLEWIGYIYPYNGGTGYNQKFKSKATITADESTNTAYMELSSLRSEDTAVYYCARGRPAMDYWGQGTLVTVSS
light: DIQMTQSPSSLSASVGDRVTITCRASESVDNYGISFMNWFQQKPGKAPKLLIYAASNQGSGVPSRFSGSGSGTDFTLTISSLQPDDFATYYCQQSKEVPWTFGQGTKVEIK
In the case of B1, the EC50 [1] is reported as 0.91 nM, the EC50 [2] is reported as 0.13 nM and the EC50 [3] is reported as 0.908 nM.
